Data from US8092810B2, “Use of polypeptides having antimicrobial activity” (Novozymes A/S, priority 2006, dated 2012).

Assays:
[1] = tested on: Streptococcus pneumoniae ATCC 49619; test: MIC broth microdilution; assay type: cell-based; conditions: Streptococcus pneumoniae ATCC 49619, Gram +; MHB, 35° C., 24 hours
Description: (§1) Briefly, the MIC was determined by microbroth dilution assay in a 96 well plate. 4-5 colonies of each bacterium tested were added to 5 ml of MHB, placed in a 35° C. shaker until the OD 600 nm reached 0.08-0.10. The inoculum was diluted 1:100 and 50 microliters were added to each well which contained 50 microliters of serial two fold dilutions of Lento, vancomycin or ciprofloxacin. Each concentration of antibiotic or Lento was tested in duplicate. The plate was placed at 35° C. overnight. MICs were determined after 24 hours incubation and defined by the well containing the lowest amount of antibiotic with no visible growth.

[2] = tested on: Staphylococcus aureus ATCC 29737; test: MIC broth microdilution; assay type: cell-based
Description: as §1

[3] = tested on: Streptococcus pneumoniae (TCRSP) ATCC 700902; test: MIC broth microdilution; assay type: cell-based; conditions: Streptococcus pneumoniae (TCRSP) ATCC 700902, Gram +; MHB, 35° C., 24 hours
Description: as §1

[4] = tested on: Staphylococcus epidermidis ATCC 12228; test: MIC broth microdilution; assay type: cell-based; conditions: Staphylococcus epidermidis ATCC 12228, Gram +; MHB, 35° C., 24 hours
Description: as §1

[5] = tested on: Corynebacterium jeikeium ATCC 43216; test: MIC broth microdilution; assay type: cell-based; conditions: Corynebacterium jeikeium ATCC 43216, Gram +; MHB, 35° C., 24 hours
Description: as §1

[6] = tested on: Enterococcus faecium ATCC 51559; test: MIC broth microdilution; assay type: cell-based
Description: as §1

[7] = tested on: Shigella dysenteriae ATCC 11835; test: MIC broth microdilution; assay type: cell-based; conditions: Shigella dysenteriae ATCC 11835, Gram −; MHB, 35° C., 24 hours
Description: as §1

[8] = tested on: Staphylococcus aureus ATCC 29213; test: MIC broth microdilution; assay type: cell-based; conditions: Staphylococcus aureus ATCC 29213, Gram +; MHB, 35° C., 24 hours
Description: as §1

[9] = tested on: Enterococcus faecalis (VRE) ATCC 51299; test: MIC broth microdilution; assay type: cell-based
Description: as §1

[10] = tested on: Micrococcus luteus ATCC 9341; test: MIC broth microdilution; assay type: cell-based
Description: as §1

[11] = tested on: Streptococcus pneumoniae (PSRSP) ATCC 700671; test: MIC broth microdilution; assay type: cell-based; conditions: Streptococcus pneumoniae (PSRSP) ATCC 700671, Gram +; MHB, 35° C., 24 hours
Description: as §1

[12] = tested on: Bacillus cereus ATCC 4342; test: MIC broth microdilution; assay type: cell-based
Description: as §1

[13] = tested on: Corynebacterium jeikeium ATCC 43734; test: MIC broth microdilution; assay type: cell-based; conditions: Corynebacterium jeikeium ATCC 43734, Gram +; MHB, 35° C., 24 hours
Description: as §1

[14] = tested on: Streptococcus pneumoniae ATCC 700676; test: MIC broth microdilution; assay type: cell-based; conditions: Streptococcus pneumoniae ATCC 700676, Gram +; MHB, 35° C., 24 hours
Description: as §1

[15] = tested on: Staphylococcus aureus ATCC 29737; test: MBC determination; assay type: cell-based; conditions: concentration that kills 99.9%
Description: as §1
(§2) MBCs were determined as described by the NCCLS guidelines (cited above).

[16] = tested on: Enterococcus faecium ATCC 51559; test: MBC determination; assay type: cell-based; conditions: concentration that kills 99.9%
Description: as §1, §2

[17] = tested on: Enterococcus faecalis (VRE) ATCC 51299; test: MBC determination; assay type: cell-based; conditions: concentration that kills 99.9%
Description: as §1, §2

[18] = tested on: Micrococcus luteus ATCC 9341; test: MBC determination; assay type: cell-based; conditions: concentration that kills 99.9%
Description: as §1, §2

[19] = tested on: gram-positive bacterial strains; test: MIC assay, summary over gram-positive strains; assay type: cell-based; conditions: a number of gram-positive strains, with the exception of certain strains of Staphylococcus
Description: as §1

[20] = tested on: Bacillus cereus ATCC 4342; test: MBC determination; assay type: cell-based; conditions: concentration that kills 99.9%
Description: Minimal inhibitory concentrations (MIC) and minimal bactericidal concentrations (MBC) were determined by broth microdilution in MHB as described by the NCCLS (National Committee for Clinical Laboratory Standards, in: Methods for Determining Bactericidal Activity of Antimicrobial Agents; Approved Guideline. National Committee for Clinical Laboratory Standards (M26-A), Vol. 19, 1999).
Briefly, the MIC was determined by microbroth dilution assay in a 96 well plate. 4-5 colonies of each bacterium tested were added to 5 ml of MHB, placed in a 35° C. shaker until the OD 600 nm reached 0.08-0.10. […] MICs were determined after 24 hours incubation and defined by the well containing the lowest amount of antibiotic with no visible growth.
To determine the MBC, 10 microliters from each well with no growth was plated in duplicate and allowed to grow overnight on Mueller-Hinton agar (Difco Catalog number 225250, Becton Dickinson and Company, Sparks, Md., US; 2.0 g beef extract powder, 17.5 g acid digest of casein, 1.5 g starch, 17 g agar—per 1000 ml of water). The MBC is based on the inoculum concentration, which was determined by plating in duplicate 50 microliters of 10^−2, 10^−3, and 10^−4 of the inoculum used for MICs. MBCs were determined as described by the NCCLS guidelines (cited above). […]

[21] = tested on: gram-negative bacterial strains; test: MIC assay, summary over gram-negative strains; assay type: cell-based; conditions: gram-negative bacterial strains of Table 1
Description: as §1

[22] = tested on: Burkholderia cepacia ATCC 25416; test: MIC broth microdilution; assay type: cell-based; conditions: Burkholderia cepacia ATCC 25416, Gram −; MHB, 35° C., 24 hours
[23] = tested on: all bacteria tested (Table 2); test: MBC versus MIC, bactericidal classification; assay type: cell-based; conditions: all bacteria tested with the exception of E. faecium ATCC 51559
Description: To determine the MBC, 10 microliters from each well with no growth was plated in duplicate and allowed to grow overnight on Mueller-Hinton agar (Difco Catalog number 225250, Becton Dickinson and Company, Sparks, Md., US; 2.0 g beef extract powder, 17.5 g acid digest of casein, 1.5 g starch, 17 g agar—per 1000 ml of water). The MBC is based on the inoculum concentration, which was determined by plating in duplicate 50 microliters of 10^−2, 10^−3, and 10^−4 of the inoculum used for MICs. MBCs were determined as described by the NCCLS guidelines (cited above). The MBC is the concentration of the tested compound that kills 99.9% of the microorganism inoculated into the well.
Based on this definition, Lento is bactericidal against all bacteria tested with the exception of E. faecium ATCC 51559.

[24] = Thermostability by Differential Scanning calorimetry (DSC); assay type: physicochemical
Description: Differential Scanning calorimetry (DSC) was used to determine temperature stability of the Lento protein at pH 2.5, 4.0 and 7.0. Purified Lento in a concentration of about 2 mg/ml was dialysed over night at 4° C. against appropriate buffer and run on a VP-DSC instrument (MicroCal) with a constant scan rate of 1.5° C./min from 20 to 90° C. Data-handling was performed using the MicroCal Origin software (version 4.10), and denaturation temperature was defined as temperature at the apex of the enthalpy peak. […] In 10 mM sodium acetate, 50 mM NaCl, pH 4.0, Lento denatured at 69° C., and in 10 mM sodium phosphate, 50 mM NaCl, pH 7.0 the denaturation temperature was 60° C.

B1: Lento: Bacillus licheniformis polypeptide having amino acids 1-85 of SEQ ID NO: 2, purified from ATCC 14580 fermentation broth (protein)
chain: MKNHLYEKKKRKPLTRTIKATLAVLTMSIALVGGATVPSFAWVNPGYHYQYPSEGGTWRYGFVNAGLRSEYNHPTKVHGSTVQKL
modifications: Bacillus licheniformis ATCC 14580
MIC [1]: 1-2 microgram/ml
MBC ([2]; Staphylococcus aureus ATCC 29737, Gram +, MHB, 35° C., 24 hours): 8-32 microgram/ml
MBC ([2]; Table 2 (MBC results), Staphylococcus aureus ATCC 29737): 32 microgram/ml
MIC [3]: 4-8 microgram/ml
MIC [4]: 128 microgram/ml
MIC [5]: 0.125 microgram/ml
MIC ([6]; Enterococcus faecium ATCC 51559, Gram +, MHB, 35° C., 24 hours): 4 microgram/ml
MIC ([6]; Table 2 (MBC results), Enterococcus faecium ATCC 51559): 4 microgram/ml
MIC [7]: >256 microgram/ml
MIC [8]: 64 microgram/ml
MIC ([9]; Enterococcus faecalis (VRE) ATCC 51299, Gram +, MHB, 35° C., 24 hours): 8 microgram/ml
MIC ([9]; Table 2 (MBC results), Enterococcus faecalis (VRE) ATCC 51299): 64 microgram/ml
MBC ([10]; Micrococcus luteus ATCC 9341, Gram +, MHB, 35° C., 24 hours): 8 microgram/ml
MBC ([10]; Table 2 (MBC results), Micrococcus luteus ATCC 9341): 8 microgram/ml
MIC [11]: 2 microgram/ml
MIC ([12]; Bacillus cereus ATCC 4342, Gram +, MHB, 35° C., 24 hours): 0.5-1 microgram/ml
MIC ([12]; Table 2 (MBC results), Bacillus cereus ATCC 4342): 1 microgram/ml
MIC [13]: 2 microgram/ml
MIC [14]: 4 microgram/ml
MBC [15]: 32 microgram/ml
MBC [16]: >64 microgram/ml
MBC [17]: 64 microgram/ml
MBC [18]: 8 microgram/ml
antimicrobial effect on gram-positive bacterial strains [19]: pronounced antimicrobial effect
MBC [20]: 1 microgram/ml
antimicrobial effect on gram-negative bacterial strains [21]: uncertain if any antimicrobial effect
MIC [22]: >256 microgram/ml
bactericidal (MBC within four fold of the MIC) [23]: bactericidal
denaturation temperature (DSC) ([24]; 10 mM citric acid, 50 mM sodium chloride, pH 2.5): 55 °C
denaturation temperature (DSC) ([24]; 10 mM sodium acetate, 50 mM NaCl, pH 4.0): 69 °C
denaturation temperature (DSC) ([24]; 10 mM sodium phosphate, 50 mM NaCl, pH 7.0): 60 °C
